Laboratory results published in patent publication US12365732 (23ANDME, dated 2025).

Columns and labels:
[1] = target: T1, hu-CD96 Fc (human, biotinylated in Table 16); test: SPR (Biacore), Fab
T1 construct: also called biotinylated hu-CD96-Fc

[2] = target: T2, hu-CD96 (soluble, isoform 2 extracellular domain) (human, UniProt P40200 22-516, biotinylated in Octet and blocking ELISA); test: SPR 25C, IgG on Protein A, CD96 analyte
T2 construct: the assays name only hu-CD96; also called hCD96; biotinylated hu-CD96
T2 sequence: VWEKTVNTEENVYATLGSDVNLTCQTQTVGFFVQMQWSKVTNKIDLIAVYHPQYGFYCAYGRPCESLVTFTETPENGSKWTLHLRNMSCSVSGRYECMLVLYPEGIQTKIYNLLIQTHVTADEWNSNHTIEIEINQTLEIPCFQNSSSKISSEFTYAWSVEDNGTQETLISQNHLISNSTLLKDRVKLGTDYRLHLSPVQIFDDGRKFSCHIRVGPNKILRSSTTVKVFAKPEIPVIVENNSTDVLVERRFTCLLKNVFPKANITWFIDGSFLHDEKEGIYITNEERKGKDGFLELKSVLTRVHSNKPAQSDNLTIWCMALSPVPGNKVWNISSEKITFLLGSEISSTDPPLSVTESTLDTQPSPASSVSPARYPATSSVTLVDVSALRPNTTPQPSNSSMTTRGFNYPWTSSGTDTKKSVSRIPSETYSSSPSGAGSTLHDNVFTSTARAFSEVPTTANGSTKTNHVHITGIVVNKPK
Experimental: (§1) SPR measurement with a BIACORE™ 8K instrument was performed to determine the monovalent binding affinity of mAb1.v7 and h10G1 IgG to hu-CD96, cy-CD96, and mo-CD96. Briefly, antibodies were diluted at 0.5 µg/mL in HBS-P buffer (0.01 M HEPES pH 7.4, 0.15 M NaCl, 0.005% Surfactant P20) and applied to the Protein A chip at 30 µL/min flow rate for 60 s in flow cell 2 (FC2). Then 3-fold serial dilutions of hu-CD96, cy-CD96, or mo-CD96 in HBS-P buffer (0.01 M HEPES pH 7.4, 0.15 M NaCl, 0.005% surfactant P20) from (0.4 nM) to high (100 nM) were injected (flow rate: 30 µL/min) at 25° C. to both flow cell 1 (FC1) and flow cell 2 (FC2). The sensorgram was recorded and subject to reference and buffer subtraction before evaluating by BIACORE® 8K Evaluation Software (version 1.1.1.7442). Association rates ($kon$) and dissociation rates ($koff$) were calculated using a simple one-to-one Langmuir binding model.

[3] = target: T3, mo-CD96 (soluble, Table 5) (mouse, UniProt Q3U0X8 22-536, limits assumed); test: SPR 25C, IgG on Protein A, CD96 analyte
T3 sequence (looked up): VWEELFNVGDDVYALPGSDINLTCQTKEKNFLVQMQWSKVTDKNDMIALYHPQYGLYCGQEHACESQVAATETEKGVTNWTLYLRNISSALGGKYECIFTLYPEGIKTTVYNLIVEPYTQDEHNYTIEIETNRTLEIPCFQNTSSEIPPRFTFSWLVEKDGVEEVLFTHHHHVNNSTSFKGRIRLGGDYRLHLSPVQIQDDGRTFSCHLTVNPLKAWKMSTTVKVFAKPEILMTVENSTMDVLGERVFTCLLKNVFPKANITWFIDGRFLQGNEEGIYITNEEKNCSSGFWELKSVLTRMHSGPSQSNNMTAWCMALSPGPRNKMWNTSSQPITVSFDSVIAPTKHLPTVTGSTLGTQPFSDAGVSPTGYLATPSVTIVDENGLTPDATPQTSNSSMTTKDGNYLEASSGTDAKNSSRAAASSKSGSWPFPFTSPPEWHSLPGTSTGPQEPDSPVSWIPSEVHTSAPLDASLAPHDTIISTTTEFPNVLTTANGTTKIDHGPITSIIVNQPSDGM
Experimental: as §1

[4] = target: T4, cy-CD226 His tag (cynomolgus monkey, UniProt A0A2K5W1Z6 19-247, biotinylated); test: SPR 25C, biotin-CD226-His captured, IgG analyte
T4 sequence: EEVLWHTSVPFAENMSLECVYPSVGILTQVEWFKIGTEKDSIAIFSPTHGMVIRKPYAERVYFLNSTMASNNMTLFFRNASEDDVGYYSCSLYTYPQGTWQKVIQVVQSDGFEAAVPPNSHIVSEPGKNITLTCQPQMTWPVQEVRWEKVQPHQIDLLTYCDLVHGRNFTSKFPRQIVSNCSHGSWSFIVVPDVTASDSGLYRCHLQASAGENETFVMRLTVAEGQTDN
Experimental: (§2) To determine the binding affinity to hu-CD226 and cy-CD226 of mAb1.v7.NGS8, h10G1, hCD155 and anti-hCD226 antibody DX11 (Abcam, cat #Ab33397), SPR measurement with a BIACORE™ 8K instrument was performed. Briefly, a 1:4 dilution of Biotin CAPture Reagent (GE Healthcare) into HBS-EP buffer (0.01 M HEPES pH 7.4, 0.15 M NaCl, 3 mM EDTA, 0.005% Surfactant P20) was applied to the chip at 2 µL/min flow rate. For the kinetics measurements, 5 µg/ml of biotinylated hu-CD226 His tag (Sino biological, cat #10565-H08H) and cy-CD226 His tag (Arco biosystems, cat #DN1-052H9) was captured at 10 µL/min to achieve ~50 response units in the second flow cell (FC2). FC1 was kept as a reference. Next, 3-fold serial dilutions of IgG in HBS-P buffer (0.01 M HEPES pH 7.4, 0.15 M NaCl, 0.005% surfactant P20) from low (1.3 nM) to high (1000 nM) concentration were injected (flow rate: 30 µL/min) at 25° C. The sensorgram was recorded and subject to reference and buffer subtraction before evaluating by BIACORE® 8K Evaluation Software (version 1.1.1.7442). Association rates ($kon$) and dissociation rates ($koff$) were calculated using a simple one-to-one Langmuir binding model. The equilibrium dissociation constant (K_D) value was calculated as the ratio of $koff/kon$. […]

[5] = target: T5, hu-CD226 His tag (human, UniProt Q15762 19-247, limits assumed, biotinylated); test: SPR 25C, biotin-CD226-His captured, IgG analyte
T5 sequence (looked up): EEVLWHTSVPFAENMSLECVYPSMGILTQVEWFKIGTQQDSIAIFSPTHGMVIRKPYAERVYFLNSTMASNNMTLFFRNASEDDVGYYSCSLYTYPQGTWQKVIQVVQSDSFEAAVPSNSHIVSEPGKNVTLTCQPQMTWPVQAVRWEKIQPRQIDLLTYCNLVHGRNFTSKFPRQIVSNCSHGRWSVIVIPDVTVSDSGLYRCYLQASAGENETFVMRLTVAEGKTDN
Experimental: as §2

B1: mAb1.v7 Fab (Fab, V domains shown)
VH: EVQLVQSGAEVKKPGASVKVSCKASGFTFTNNWMHWVRQAPGQGLEWIGMIHPNSGITNINEKFKNRVTMTTDTSTSTAYMELRSLRSEDTAVYYCRSDGTYEGYFDYWGQGTLVTVSS
VL: DIQLTQSPSSLSASVGDRVTITCKASQNVGTAIVWYQQKPGKAPKVLIYSASTRYTGVPSRFSGSGSGTDFTLTISSLQPEDFATYYCQQYSSSPLTFGQGTKVEIK
[1]
  Kd: 44.6 nM
  koff: 0.000817 s⁻¹
  kon: 18300 M⁻¹ s⁻¹

B2: mAb1.v7 IgG (humanized 12F8) (antibody, V domains shown)
VH: B1 VH
VL: DIQLTQSPSSLSASVGDRVTITCKASQNVGTAIVWYQQKPGKAPKVLIYSASTRYTGVPSRFSGSGSGTDFTLTISSLQPEDFATYYCQQYSSSPLTFGQGTKVEIKG
notes: human IgG1 N297G
[2]
  Kd: 4.49 nM
[3]
  Kd: ~386 nM

B3: h10G1 IgG (humanized 10G1) (antibody, V domains shown)
VH: EIQLVQSGSELKKPGASVKVSCKASGYPFTTYGMSWVRQAPGQGLEWMGWINTDSGVPTYADDFKGRFVFSLDTSVSTAYLQISSLKAEDTAVYFCARNIYYGWGNFDYWGQGTLVTVSS
VL: EIVMTQSPDFQSVTPKEKVTITCRASQDIYRNLHWYQQKPDQTPKLLIKHASDSISGIPSRFSGSGSGTDFTLTINSLEAEDAAAYYCLQGYSMPYTFGGGTKVEIKG
notes: human IgG1 N297G
[4]
  binding result: no binding (tested: 1000 nM highest)
[5]
  binding result: no binding (tested: 1000 nM highest)
[2]
  apparent Kd (pooled screen): 1.17 nM
[3]
  binding result: no binding (tested: 100 nM highest)
